Laboratory results taken from US20180015152.

What was measured:
[1] = target: T1, cell permeable human non-Casp1 cleavable Sirt1 polypeptide (NC-Sirt1)
T1 chain: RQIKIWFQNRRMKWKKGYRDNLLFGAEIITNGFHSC

[2] = target: T2, sirtuin 1 (human Sirt1, endogenous in human aortic endothelial cells), Q96EB6
T2 chain: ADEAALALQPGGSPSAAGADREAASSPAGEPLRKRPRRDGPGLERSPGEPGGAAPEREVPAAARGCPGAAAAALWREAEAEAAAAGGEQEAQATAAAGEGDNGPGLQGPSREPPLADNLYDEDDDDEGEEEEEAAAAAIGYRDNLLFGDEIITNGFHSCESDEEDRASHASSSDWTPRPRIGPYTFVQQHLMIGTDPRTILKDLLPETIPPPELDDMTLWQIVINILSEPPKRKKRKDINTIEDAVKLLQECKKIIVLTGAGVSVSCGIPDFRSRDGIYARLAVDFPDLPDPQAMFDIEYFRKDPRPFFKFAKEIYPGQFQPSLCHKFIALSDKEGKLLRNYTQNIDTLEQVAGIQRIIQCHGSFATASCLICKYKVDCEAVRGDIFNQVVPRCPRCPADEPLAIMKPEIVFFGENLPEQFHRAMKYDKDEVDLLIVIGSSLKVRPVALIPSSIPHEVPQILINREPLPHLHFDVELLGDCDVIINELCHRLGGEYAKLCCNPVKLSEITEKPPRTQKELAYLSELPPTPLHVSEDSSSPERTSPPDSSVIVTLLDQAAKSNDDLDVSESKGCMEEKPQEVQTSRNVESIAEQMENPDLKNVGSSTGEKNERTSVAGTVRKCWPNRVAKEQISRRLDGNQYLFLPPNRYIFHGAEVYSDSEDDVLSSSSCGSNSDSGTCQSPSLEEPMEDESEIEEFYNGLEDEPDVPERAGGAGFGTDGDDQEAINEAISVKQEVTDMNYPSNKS

B1: caspase-1 (human, endogenous in human aortic endothelial cells) (protein)
chain: NPAMPTSSGSEGNVKLCSLEEAQRIWKQKSAEIYPIMDKSSRTRLALIICNEEFDSIPRRTGAEVDITGMTMLLQNLGYSVDVKKNLTASDMTTELEAFAHRPEHKTSDSTFLVFMSHGIREGICGKKHSEQVPDILQLNAIFNMLNTKNCPSLKDKPKVIIIQACRGDSPGVVWFKDSVGVSGNLSLPTTEEFEDDAIKKAHIEKDFIAFCSSTPDNVSWRHPTMGSVFIGRLIEHMQEYACSCDVEEIFRKVRFSFEQPDGRAQMPTTERVTLTRCFYLFPGH
- cleaved-Sirt1 expression by Western blot with anti-Sirt1 antibody in oxLDL-treated HAECs [1]: NC-Sirt1 dose-dependently decreases the cleavage of Sirt1 induced by oxLDL
- cleaved-Sirt1 expression by Western blot in HAECs treated with oxLDL [2]: oxLDL induced the expression of cleaved-Sirt1 by 2.4-folds in HAECs
